Test results taken from IntAct's records for PubMed 10664449.

B1: Guanine nucleotide-binding protein subunit beta (Saccharomyces cerevisiae), P18851 (parent)
chain: MAAHQMDSITYSNNVTQQYIQPQSLQDISAVEDEIQNKIEAARQESKQLHAQINKAKHKIQDASLFQMANKVTSLTKNKINLKPNIVLKGHNNKISDFRWSRDSKRILSASQDGFMLIWDSASGLKQNAIPLDSQWVLSCAISPSSTLVASAGLNNNCTIYRVSKENRVAQNVASIFKGHTCYISDIEFTDNAHILTASGDMTCALWDIPKAKRVREYSDHLGDVLALAIPEEPNSENSSNTFASCGSDGYTYIWDSRSPSAVQSFYVNDSDINALRFFKDGMSIVAGSDNGAINMYDLRSDCSIATFSLFRGYEERTPTPTYMAANMEYNTAQSPQTLKSTSSSYLDNQGVVSLDFSASGRLMYSCYTDIGCVVWDVLKGEIVGKLEGHGGRVTGVRSSPDGLAVCTGSWDSTMKIWSPGYQ
partner: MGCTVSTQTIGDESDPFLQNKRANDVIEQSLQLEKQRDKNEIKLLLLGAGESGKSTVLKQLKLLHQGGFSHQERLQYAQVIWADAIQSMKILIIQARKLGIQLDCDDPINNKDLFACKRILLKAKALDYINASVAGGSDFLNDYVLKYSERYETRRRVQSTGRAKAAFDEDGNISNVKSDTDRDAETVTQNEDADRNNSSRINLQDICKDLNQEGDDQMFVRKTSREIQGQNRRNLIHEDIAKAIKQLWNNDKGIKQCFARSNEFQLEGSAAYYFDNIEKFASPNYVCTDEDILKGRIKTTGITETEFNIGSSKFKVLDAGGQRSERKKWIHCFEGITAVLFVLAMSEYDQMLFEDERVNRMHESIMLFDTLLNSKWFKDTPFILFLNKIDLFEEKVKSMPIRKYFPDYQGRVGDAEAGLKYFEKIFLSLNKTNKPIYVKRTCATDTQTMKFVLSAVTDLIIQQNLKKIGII

Variants of: B1
Conditions: with gpa1_yeast GPA1, P08539

| Variant | effect of a mutation on the interaction |
| --- | --- |
| L132F | decreasing interaction |
